Experimental findings from US20220389118A1 (Chugai, published 2022) are described below.

The target of assay [1] is T1, human FcγRIIa type R extracellular domain with C-terminal His tag (human, UniProt P12318 34-217).
T1 construct: extracellular domain; also called FcγRIIaR; FcgRIIaR
T1 sequence (looked up): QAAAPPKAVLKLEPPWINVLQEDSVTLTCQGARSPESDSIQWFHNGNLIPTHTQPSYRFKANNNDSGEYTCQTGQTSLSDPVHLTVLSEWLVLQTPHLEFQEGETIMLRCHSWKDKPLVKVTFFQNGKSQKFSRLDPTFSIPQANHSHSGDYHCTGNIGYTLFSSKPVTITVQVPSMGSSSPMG
Kind of assay: SPR (Biacore). Background: In SPR one partner is held on a chip, and binding of the other changes the refractive index at the surface.

Assay [2] addresses T2, human FcγRIIIa type V extracellular domain with C-terminal His tag (human, UniProt P08637 17-208).
T2 construct: extracellular domain; also called FcγRIIIaV; FcgRIIIaV
Kind of assay: SPR (Biacore).

Assay [3] has as its target T3, human FcγRIIb extracellular domain with C-terminal His tag (human, UniProt P31994 43-217).
T3 construct: extracellular domain; not shown: His tag at the C terminus
T3 sequence (looked up): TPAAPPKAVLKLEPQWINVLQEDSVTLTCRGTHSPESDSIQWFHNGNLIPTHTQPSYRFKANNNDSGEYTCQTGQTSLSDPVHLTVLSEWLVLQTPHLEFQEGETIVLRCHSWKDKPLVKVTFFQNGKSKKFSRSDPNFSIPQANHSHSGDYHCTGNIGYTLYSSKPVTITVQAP
The assay is described as follows: SPR (Biacore), antibody captured, FcγR analyte.

Assay [4] deals with T4, human FcγRIIIa type V (allotype V158) extracellular domain with C-terminal His tag (human, UniProt P08637 17-208).
T4 construct: extracellular domain; also called FcγRIIIaV; FcγRIIIa V type; not shown: His tag at the C terminus
T4 sequence (P08637 17-208 F176V): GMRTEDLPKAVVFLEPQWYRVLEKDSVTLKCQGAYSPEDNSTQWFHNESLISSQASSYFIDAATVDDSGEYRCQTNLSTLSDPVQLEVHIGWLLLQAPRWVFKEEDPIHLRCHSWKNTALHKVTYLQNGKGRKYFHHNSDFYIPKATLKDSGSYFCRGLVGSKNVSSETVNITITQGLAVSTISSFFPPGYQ
Kind of assay: SPR (Biacore), antibody captured, FcγR analyte.

Assay [5] concerns the target T5, human FcγRIIa type R extracellular domain with C-terminal His tag (human, UniProt P12318 34-217).
T5 construct: extracellular domain; also called FcγRIIaR; FcgRIIaR
T5 sequence (looked up): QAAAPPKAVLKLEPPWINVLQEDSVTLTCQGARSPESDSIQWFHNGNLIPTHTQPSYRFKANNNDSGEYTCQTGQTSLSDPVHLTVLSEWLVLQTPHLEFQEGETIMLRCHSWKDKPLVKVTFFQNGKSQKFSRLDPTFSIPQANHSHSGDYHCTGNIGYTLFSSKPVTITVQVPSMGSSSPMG
The assay is described as follows: SPR (Biacore), antibody captured, FcγR as analyte.

For assay [6], the target named is T6, human FcγRIIb extracellular domain with C-terminal His tag (human, UniProt P31994 43-217).
T6 construct: extracellular domain; also called FcgRIIb
T6 sequence (looked up): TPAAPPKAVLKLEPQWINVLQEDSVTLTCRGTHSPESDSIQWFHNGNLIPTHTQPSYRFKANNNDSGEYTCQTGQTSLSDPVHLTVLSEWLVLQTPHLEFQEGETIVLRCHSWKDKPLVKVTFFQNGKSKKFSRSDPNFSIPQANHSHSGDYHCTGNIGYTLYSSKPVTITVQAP
Kind of assay: SPR (Biacore), antibody captured, FcγR as analyte.

The target of assay [7] is T7, human FcγRIa extracellular domain with C-terminal His tag (human, UniProt P12314 16-292).
T7 construct: also called FcgRIa
T7 sequence (P12314 16-292): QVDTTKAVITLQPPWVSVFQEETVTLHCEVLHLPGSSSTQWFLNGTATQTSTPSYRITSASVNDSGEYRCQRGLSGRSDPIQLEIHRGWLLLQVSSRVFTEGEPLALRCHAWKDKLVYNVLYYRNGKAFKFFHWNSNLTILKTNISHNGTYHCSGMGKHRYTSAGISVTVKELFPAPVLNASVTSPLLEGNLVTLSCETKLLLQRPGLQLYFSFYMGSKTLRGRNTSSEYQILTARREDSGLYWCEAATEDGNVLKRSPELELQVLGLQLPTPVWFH
Kind of assay: SPR (Biacore), antibody captured, FcγR as analyte.

The target in assay [8] is T8, human FcγRIIa type H extracellular domain with C-terminal His tag (human, UniProt P12318 34-217).
T8 construct: extracellular domain; also called FcγRIIaH; FcgRIIaH
T8 sequence (looked up): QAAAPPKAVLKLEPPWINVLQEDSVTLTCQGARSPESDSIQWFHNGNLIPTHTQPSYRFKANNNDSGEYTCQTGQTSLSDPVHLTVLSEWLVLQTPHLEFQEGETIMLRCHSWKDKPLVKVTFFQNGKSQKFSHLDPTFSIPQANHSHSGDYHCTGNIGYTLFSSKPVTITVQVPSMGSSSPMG
The assay is described as follows: SPR (Biacore).

T2 sequence (P08637 17-208 F176V): as the sequence (P08637 17-208 F176V) above

B1: IL6R-2B253/IL6R-L (antibody, human IgG1, kappa)
heavy: QVQLQESGPGLVKPSETLSLTCAVSGHSISHDHAWSWVRQPPGEGLEWIGFISYSGITNYNPSLQGRVTISRDNSKNTLYLQMNSLRAEDTAVYYCARSLARTTAMDYWGEGTLVTVSSASTKGPSVFPLAPSSKSTSGGTAALGCLVKDYFPEPVTVSWNSGALTSGVHTFPAVLQSSGLYSLSSVVTVPSSSLGTQTYICNVNHKPSNTKVDKKVEPKSCDKTHTCPPCPAPDLLGGDSVFLFPPKPKDTLMISRTPEVTCVVVDVSHEDPEVKFNWYVDGVEVHNAKTKPREEQYNSTYRVVSVLTVLHQDWLNGKEYKCKMSNKALPAPIEKTISKAKGQPREPQVYTLPPSRDELTKNQVSLTCLVKGFYPSDIAVEWESNGQPENNYKTTPPVLDSDGSFFLYSKLTVDKSRWQQGNVFSCSVMHEALHNHYTQESLSLSP
light: not shown
notes: EU numbering; alterations on IL6R-B3; copies: 2 + 2
As a reminder, the Kd is the constant that tells how readily two partners part at equilibrium. Lower therefore signals higher affinity. B1: the Kd was determined as 5 µM in assay [1] and 50 µM in assay [2].

B2: IL6R-BP350/IL6R-L (antibody, human IgG1, kappa)
heavy: QVQLQESGPGLVKPSETLSLTCAVSGHSISHDHAWSWVRQPPGEGLEWIGFISYSGITNYNPSLQGRVTISRDNSKNTLYLQMNSLRAEDTAVYYCARSLARTTAMDYWGEGTLVTVSSASTKGPSVFPLAPSSKSTSGGTAALGCLVKDYFPEPVTVSWNSGALTSGVHTFPAVLQSSGLYSLSSVVTVPSSSLGTQTYICNVNHKPSNTKVDKKVEPKSCDKTHTCPPCPAPDLLGDDSVFLFPPKPKDTLMISRTPEVTCVVVDVEEEDGEVKFNWYVDGVEVHNAKTKPREEQYNSTYRVVSVLTVLHQDWLNGKEYKCKVSNKALPAPIEKTISKAKGQPREPQVYTLPPSRDELTKNQVSLTCLVKGFYPSDIAVEWESNGQPENNYKTTPPVLDSDGSFFLYSKLTVDKSRWQQGNVFSCSVMHEALHNHYTQESLSLSP
light: not shown
notes: S267E introduced into IL6R-BP267; copies: 2 + 2
Molecule B2 came in with a Kd in assay [3] of 0.1 µM.

B3: IL6R-BP231/IL6R-L (antibody, human IgG1, kappa)
heavy: QVQLQESGPGLVKPSETLSLTCAVSGHSISHDHAWSWVRQPPGEGLEWIGFISYSGITNYNPSLQGRVTISRDNSKNTLYLQMNSLRAEDTAVYYCARSLARTTAMDYWGEGTLVTVSSASTKGPSVFPLAPSSKSTSGGTAALGCLVKDYFPEPVTVSWNSGALTSGVHTFPAVLQSSGLYSLSSVVTVPSSSLGTQTYICNVNHKPSNTKVDKKVEPKSCDKTHTCPPCPAPELLGDDSVFLFPPKPKDTLMISRTPEVTCVVVDVSDEDGEVKFNWYVDGVEVHNAKTKPREEQDNSTYRVVSVLTVLHQDWLNGKEYKCKVSNKALPRPIEKTISKAKGQPREPQVYTLPPSRDELTKNQVSLTCLVKGFYPSDIAVEWESNGQPENNYKTTPPVLDSDGSFFLYSKLTVDKSRWQQGNVFSCSVMHEALHNHYTQESLSLSP
light: not shown
notes: copies: 2 + 2
B3 showed a Kd in assay [4] of 40 µM.

B4: IL6R-BP085/IL6R-L (antibody, human IgG1, kappa)
heavy: QVQLQESGPGLVKPSETLSLTCAVSGHSISHDHAWSWVRQPPGEGLEWIGFISYSGITNYNPSLQGRVTISRDNSKNTLYLQMNSLRAEDTAVYYCARSLARTTAMDYWGEGTLVTVSSASTKGPSVFPLAPSSKSTSGGTAALGCLVKDYFPEPVTVSWNSGALTSGVHTFPAVLQSSGLYSLSSVVTVPSSSLGTQTYICNVNHKPSNTKVDKKVEPKSCDKTHTCPPCPAPELLGDDSVFLFPPKPKDTLMISRTPEVTCVVVDVSHEDPEVKFNWYVDGVEVHNAKTKPREEQYNSTYRVVSVLTVLHQDWLNGKEYKCKVSNKALPKPIEKTISKAKGQPREPQVYTLPPSRDELTKNQVSLTCLVKGFYPSDIAVEWESNGQPENNYKTTPPVLDSDGSFFLYSKLTVDKSRWQQGNVFSCSVMHEALHNHYTQESLSLSP
light: not shown
notes: as for B1
B4: the figures for the dissociation constant Kd in assay [1] and in assay [2] were 4.2 µM and 68 µM, respectively.

B5: IL6R-BP217/IL6R-L (antibody, human IgG1, kappa)
heavy: QVQLQESGPGLVKPSETLSLTCAVSGHSISHDHAWSWVRQPPGEGLEWIGFISYSGITNYNPSLQGRVTISRDNSKNTLYLQMNSLRAEDTAVYYCARSLARTTAMDYWGEGTLVTVSSASTKGPSVFPLAPSSKSTSGGTAALGCLVKDYFPEPVTVSWNSGALTSGVHTFPAVLQSSGLYSLSSVVTVPSSSLGTQTYICNVNHKPSNTKVDKKVEPKSCDKTHTCPPCPAPELLGDDSVFLFPPKPKDTLMISRTPEVTCVVVDVQDEDGEVKFNWYVDGVEVHNAKTKPREEQDNSTYRVVSVLTVLHQDWLNGKEYKCKVSNKALPKPIEKTISKAKGQPREPQVYTLPPSRDELTKNQVSLTCLVKGFYPSDIAVEWESNGQPENNYKTTPPVLDSDGSFFLYSKLTVDKSRWQQGNVFSCSVMHEALHNHYTQESLSLSP
light: not shown
notes: copies: 2 + 2
In the case of B5, the Kd in assay [4] amounted to 60 µM.

B6: IL6R-BP367/IL6R-L (antibody, human IgG1, kappa)
heavy: QVQLQESGPGLVKPSETLSLTCAVSGHSISHDHAWSWVRQPPGEGLEWIGFISYSGITNYNPSLQGRVTISRDNSKNTLYLQMNSLRAEDTAVYYCARSLARTTAMDYWGEGTLVTVSSASTKGPSVFPLAPSSKSTSGGTAALGCLVKDYFPEPVTVSWNSGALTSGVHTFPAVLQSSGLYSLSSVVTVPSSSLGTQTYICNVNHKPSNTKVDKKVEPKSCDKTHTCPPCPAPDLLGDDSVFLFPPKPKDTLMISRTPEVTCVVVDVSEDDGEVKFNWYVDGVEVHNAKTKPREEQYNSTYRVVSVLTVLHQDWLNGKEYKCKVSNKALPAPIEKTISKAKGQPREPQVYTLPPSRDELTKNQVSLTCLVKGFYPSDIAVEWESNGQPENNYKTTPPVLDSDGSFFLYSKLTVDKSRWQQGNVFSCSVMHEALHNHYTQESLSLSP
light: not shown
notes: E269D introduced into IL6R-BP267; copies: 2 + 2
The molecule B6 registered a Kd in assay [3] of 0.1 µM.

B7: IL6R-BP106/IL6R-L (antibody, human IgG1, kappa)
heavy: QVQLQESGPGLVKPSETLSLTCAVSGHSISHDHAWSWVRQPPGEGLEWIGFISYSGITNYNPSLQGRVTISRDNSKNTLYLQMNSLRAEDTAVYYCARSLARTTAMDYWGEGTLVTVSSASTKGPSVFPLAPSSKSTSGGTAALGCLVKDYFPEPVTVSWNSGALTSGVHTFPAVLQSSGLYSLSSVVTVPSSSLGTQTYICNVNHKPSNTKVDKKVEPKSCDKTHTCPPCPAPELLGGDSVFLFPPKPKDTLMISRTPEVTCVVVDVSDEDPEVKFNWYVDGVEVHNAKTKPREEQYNSTYRVVSVLTVLHQDWLNGKEYKCKVSNKALPAPIEKTISKAKGQPREPQVYTLPPSRDELTKNQVSLTCLVKGFYPSDIAVEWESNGQPENNYKTTPPVLDSDGSFFLYSKLTVDKSRWQQGNVFSCSVMHEALHNHYTQESLSLSP
light: not shown
notes: IgG1 type
Consider B7, for which the Kd in assay [5] was found to be 11 µM; in assay [7] it was 0.004 µM. Further, the “KD(IIb) of parent polypeptide/KD(IIb) of altered polypeptide” value in assay [6] was found to be 3.3 fold vs IL6R-B3/IL6R-L.

B8: IL6R-BP132/IL6R-L (antibody, human IgG1, kappa)
heavy: QVQLQESGPGLVKPSETLSLTCAVSGHSISHDHAWSWVRQPPGEGLEWIGFISYSGITNYNPSLQGRVTISRDNSKNTLYLQMNSLRAEDTAVYYCARSLARTTAMDYWGEGTLVTVSSASTKGPSVFPLAPSSKSTSGGTAALGCLVKDYFPEPVTVSWNSGALTSGVHTFPAVLQSSGLYSLSSVVTVPSSSLGTQTYICNVNHKPSNTKVDKKVEPKSCDKTHTCPPCPAPDLLGGDSVFLFPPKPKDTLMISRTPEVTCVVVDVSHEDPEVKFNWYVDGVEVHNAKTKPREEQYNSTYRVVSVLTVLHQDWLNGKEYKCKVSNAALPKPIEKTISKAKGQPREPQVYTLPPSRDELTKNQVSLTCLVKGFYPSDIAVEWESNGQPENNYKTTPPVLDSDGSFFLYSKLTVDKSRWQQGNVFSCSVMHEALHNHYTQESLSLSP
light: not shown
notes: as for B1
Regarding B8, the Kd in assay [1] was determined as 8 µM; in assay [8] it was 30 µM.

B9: IL6R-BP119/IL6R-L (antibody, human IgG1, kappa)
heavy: QVQLQESGPGLVKPSETLSLTCAVSGHSISHDHAWSWVRQPPGEGLEWIGFISYSGITNYNPSLQGRVTISRDNSKNTLYLQMNSLRAEDTAVYYCARSLARTTAMDYWGEGTLVTVSSASTKGPSVFPLAPSSKSTSGGTAALGCLVKDYFPEPVTVSWNSGALTSGVHTFPAVLQSSGLYSLSSVVTVPSSSLGTQTYICNVNHKPSNTKVDKKVEPKSCDKTHTCPPCPAPELLGGDSVFLFPPKPKDTLMISRTPEVTCVVVDVSHEDPEVKFNWYVDGVEVHNAKTKPREEQYNSTYRVVSVLTVLHQDWLNGKEYKCKVSNMALPAPIEKTISKAKGQPREPQVYTLPPSRDELTKNQVSLTCLVKGFYPSDIAVEWESNGQPENNYKTTPPVLDSDGSFFLYSKLTVDKSRWQQGNVFSCSVMHEALHNHYTQESLSLSP
light: not shown
notes: IgG1 type
For the molecule B9, the Kd in assay [5] stood at 9.9 µM; in assay [7], 0.007 µM. Besides, in assay [6], the “KD(IIb) of parent polypeptide/KD(IIb) of altered polypeptide” value stood at 2.7 fold vs IL6R-B3/IL6R-L.
